Experimental data reported in paper PMC3001066 (Nucleic Acids Research, 2010).

Biological target: full-length hAPE1 (human apurinic/apyrimidinic endonuclease 1), recombinant, as immobilised for SPR (human, UniProt P27695 1-318)
Assay: SPR

full-length hAPE1 (human apurinic/apyrimidinic endonuclease 1), recombinant, as immobilised for SPR, sequence (P27695 whole entry): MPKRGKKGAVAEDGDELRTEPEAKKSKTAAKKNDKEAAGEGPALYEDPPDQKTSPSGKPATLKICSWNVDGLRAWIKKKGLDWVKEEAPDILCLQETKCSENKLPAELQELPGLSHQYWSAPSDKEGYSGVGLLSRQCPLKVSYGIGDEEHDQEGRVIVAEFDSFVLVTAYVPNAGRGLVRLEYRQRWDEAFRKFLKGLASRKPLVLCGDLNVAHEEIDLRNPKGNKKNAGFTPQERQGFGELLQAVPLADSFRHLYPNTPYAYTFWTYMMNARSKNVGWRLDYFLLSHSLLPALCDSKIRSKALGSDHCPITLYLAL

B1: N-terminal domain of NPM1 (residues 1-117) (domain or fragment, UniProt P06748 1-117, looked up)
chain: MEDSMDMDMSPLRPQNYLFGCELKADKDYHFKVDNDENEHQLSLRTVSLGAGAKDELHIVEAEAMNYEGSPIKVTLATLKMSVQPTVSLGGFEITPPVVLRLKCGSGPVHISGQHLV
Kd: 668 ± 5 nM
